Experimental data published in patent publication US8728472 (University of Texas, dated 2014).

Legend:
[1] = molecular target: T1, p25 generated in rat brain or rat striatal neurons by ischemia (MCAO or OGD) (rat, UniProt P61809 99-307 (mouse entry)); experiment: detection of p25 in stroked rat brain; immunostains of striatum and cortex (FIG. 7D)
T1 construct: Endogenous protein in tissue sections, lysates and primary cultures; also called p25 generated by MCAO; p25 generated in response to focal ischemia

[2] = molecular target: T2, p35 (Mus musculus (Mouse), UniProt P61809 1-307); experiment: immunoblot of striatal lysates from p25 over-expressing mice (FIG. 2B)
T2 construct: also called Cdk5 cofactor p35

[3] = molecular target: T3, Cdk5 expressed in HEK293T cells from a transfected eukaryotic expression plasmid (UniProt Q00535 1-292); experiment: immunohistochemical staining of transfected HEK293T cells (FIG. 2C)
T3 construct: also called cyclin-dependent kinase 5

T1 sequence (P61809 99-307 limits assumed): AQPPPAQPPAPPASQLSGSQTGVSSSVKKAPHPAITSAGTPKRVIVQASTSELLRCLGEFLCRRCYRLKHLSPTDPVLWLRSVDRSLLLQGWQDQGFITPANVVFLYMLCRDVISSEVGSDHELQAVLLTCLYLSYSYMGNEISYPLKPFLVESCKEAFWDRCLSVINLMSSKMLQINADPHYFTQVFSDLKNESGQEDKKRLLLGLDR
T2 sequence (P61809 whole entry): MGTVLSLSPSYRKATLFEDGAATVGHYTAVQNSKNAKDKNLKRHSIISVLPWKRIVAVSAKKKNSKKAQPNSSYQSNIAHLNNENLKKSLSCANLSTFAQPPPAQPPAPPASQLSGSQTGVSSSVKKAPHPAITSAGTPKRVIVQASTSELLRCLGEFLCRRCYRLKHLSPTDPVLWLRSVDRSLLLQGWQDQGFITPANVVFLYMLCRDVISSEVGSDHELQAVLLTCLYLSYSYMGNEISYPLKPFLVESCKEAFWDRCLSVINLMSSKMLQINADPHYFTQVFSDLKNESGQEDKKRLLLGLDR

B1: anti-p25 monoclonal antibody 1C4 (antibody, V domains shown)
VH: QIQLEESGPELRKPGETVRISCKASGYTFTTAGMQWVQKMPGTGLKWIGWINTHSGVPKYAGEFTGRFDFSLETSASTAYLQIVNLKNEDTATYFCARYGKFGEMDYWGQGTSVTVSS
VL: IVMTQSPASLAVSLGQRATISCRSSETVDSDGNSFMHWYQQKPGQSPKLLLYLASTLESGVPARFSGSGSRTDFTLTIDPVEADDAATYYCHQNNEDPTFGGGTKLEIKR
notes: Mouse monoclonal antibody from hybridoma 1C4; also called p25 mAb; anti-p25 antibody
B1: binds [1]; no binding [2]; no binding [3].
